Measurements from article PMC10227063 (Communications Biology, 2023).

How the values were obtained:
YfkE = biological target: T1, YfkE (Bacillus subtilis, UniProt O34840); experiment: biochemical
T1 construct: gene chaA

[1] = substrate: O=P(O)(O)O; experiment: cells, lysate or membranes; conditions: outward H+ gradient by NADH, room temperature, labelled compound
[2] = co-substrate Ca2+, 5x more vesicles than WT
[3] = co-substrate Ca2+, residue printed R3 in table but R4 in text

Row | Molecule | Km [1, 2] | Vmax [1, 2] | also measured
1 | O=P(O)(O)O [inorganic phosphate] |  |  | Kd (YfkE): 930 ± 360 µM
2 | YfkE (Bacillus subtilis subsp. subtilis str. 168) (protein) MNRIFFILVAAGVPLSVIGSLMHWPSAVLFAVYCVTIIALASYMGRATESLSIIAGPRIGGLLNATFGNAVELIISLFALKEGLTGIVLASLTGSVLGNLLLVAGLSFFVGGLKYKRQEFNIHDARHNSGLLIFAIIVAFVIPEVFSVGMGNASKLNLSIGISIIMILLYVAALYFKLVTHRGVYQPNNAAQTEEEEEPEWSGKVATIVLFAATIVVAYISENLVHTFHSVAEQFGWSELFIGVIIVAIVGNAAEHASAIIMAFKNKMDIAVEIAVGSTLQIAMFVAPVLVICSIFFPTSMPLVFTLPELVAMVSAVLLMIAISNDGDSNWFEGATLLAAYVIMAIGFFLL |  |  | Km ([1]; co-substrate Ca2+ 0.1 mM): 4.9 mM
3 | YfkE (Bacillus subtilis subsp. subtilis str. 168; Q281A) (protein) MNRIFFILVAAGVPLSVIGSLMHWPSAVLFAVYCVTIIALASYMGRATESLSIIAGPRIGGLLNATFGNAVELIISLFALKEGLTGIVLASLTGSVLGNLLLVAGLSFFVGGLKYKRQEFNIHDARHNSGLLIFAIIVAFVIPEVFSVGMGNASKLNLSIGISIIMILLYVAALYFKLVTHRGVYQPNNAAQTEEEEEPEWSGKVATIVLFAATIVVAYISENLVHTFHSVAEQFGWSELFIGVIIVAIVGNAAEHASAIIMAFKNKMDIAVEIAVGSTLAIAMFVAPVLVICSIFFPTSMPLVFTLPELVAMVSAVLLMIAISNDGDSNWFEGATLLAAYVIMAIGFFLL | 29.9 mM | 1.9e-05 µmol/min/mg | 
4 | YfkE (Bacillus subtilis subsp. subtilis str. 168; N252A) (protein) MNRIFFILVAAGVPLSVIGSLMHWPSAVLFAVYCVTIIALASYMGRATESLSIIAGPRIGGLLNATFGNAVELIISLFALKEGLTGIVLASLTGSVLGNLLLVAGLSFFVGGLKYKRQEFNIHDARHNSGLLIFAIIVAFVIPEVFSVGMGNASKLNLSIGISIIMILLYVAALYFKLVTHRGVYQPNNAAQTEEEEEPEWSGKVATIVLFAATIVVAYISENLVHTFHSVAEQFGWSELFIGVIIVAIVGAAAEHASAIIMAFKNKMDIAVEIAVGSTLQIAMFVAPVLVICSIFFPTSMPLVFTLPELVAMVSAVLLMIAISNDGDSNWFEGATLLAAYVIMAIGFFLL | 8.2 mM | 1.9e-05 µmol/min/mg | 
5 | YfkE (Bacillus subtilis subsp. subtilis str. 168; H256A) (protein) MNRIFFILVAAGVPLSVIGSLMHWPSAVLFAVYCVTIIALASYMGRATESLSIIAGPRIGGLLNATFGNAVELIISLFALKEGLTGIVLASLTGSVLGNLLLVAGLSFFVGGLKYKRQEFNIHDARHNSGLLIFAIIVAFVIPEVFSVGMGNASKLNLSIGISIIMILLYVAALYFKLVTHRGVYQPNNAAQTEEEEEPEWSGKVATIVLFAATIVVAYISENLVHTFHSVAEQFGWSELFIGVIIVAIVGNAAEAASAIIMAFKNKMDIAVEIAVGSTLQIAMFVAPVLVICSIFFPTSMPLVFTLPELVAMVSAVLLMIAISNDGDSNWFEGATLLAAYVIMAIGFFLL | 34.2 mM | 5.1e-05 µmol/min/mg | 
6 | YfkE (Bacillus subtilis subsp. subtilis str. 168; R3A) (protein) MNAIFFILVAAGVPLSVIGSLMHWPSAVLFAVYCVTIIALASYMGRATESLSIIAGPRIGGLLNATFGNAVELIISLFALKEGLTGIVLASLTGSVLGNLLLVAGLSFFVGGLKYKRQEFNIHDARHNSGLLIFAIIVAFVIPEVFSVGMGNASKLNLSIGISIIMILLYVAALYFKLVTHRGVYQPNNAAQTEEEEEPEWSGKVATIVLFAATIVVAYISENLVHTFHSVAEQFGWSELFIGVIIVAIVGNAAEHASAIIMAFKNKMDIAVEIAVGSTLQIAMFVAPVLVICSIFFPTSMPLVFTLPELVAMVSAVLLMIAISNDGDSNWFEGATLLAAYVIMAIGFFLL |  |  | Km [1, 3]: 5.5 mM; Vmax [1, 3]: 7.5e-05 µmol/min/mg
7 | YfkE (Bacillus subtilis subsp. subtilis str. 168; N99A) (protein) MNRIFFILVAAGVPLSVIGSLMHWPSAVLFAVYCVTIIALASYMGRATESLSIIAGPRIGGLLNATFGNAVELIISLFALKEGLTGIVLASLTGSVLGALLLVAGLSFFVGGLKYKRQEFNIHDARHNSGLLIFAIIVAFVIPEVFSVGMGNASKLNLSIGISIIMILLYVAALYFKLVTHRGVYQPNNAAQTEEEEEPEWSGKVATIVLFAATIVVAYISENLVHTFHSVAEQFGWSELFIGVIIVAIVGNAAEHASAIIMAFKNKMDIAVEIAVGSTLQIAMFVAPVLVICSIFFPTSMPLVFTLPELVAMVSAVLLMIAISNDGDSNWFEGATLLAAYVIMAIGFFLL | 12.4 mM | 3.9e-05 µmol/min/mg | 
